Measurements published in publication PMC10341545, “Structural and Biochemical Investigation of Selected Pathogenic Mutants of the Human Dihydrolipoamide Dehydrogenase” (International Journal of Molecular Sciences, 2023).

B1: I318T-hLADH (enzyme, human, UniProt P09622 36-509, looked up)
chain: ADQPIDADVTVIGSGPGGYVAAIKAAQLGFKTVCIEKNETLGGTCLNVGCIPSKALLNNSHYYHMAHGKDFASRGIEMSEVRLNLDKMMEQKSTAVKALTGGIAHLFKQNKVVHVNGYGKITGKNQVTATKADGGTQVIDTKNILIATGSEVTPFPGITIDEDTIVSSTGALSLKKVPEKMVVIGAGVIGVELGSVWQRLGADVTAVEFLGHVGGVGIDMEISKNFQRILQKQGFKFKLNTKVTGATKKSDGKIDVSIEAASGGKAEVITCDVLLVCIGRRPFTKNLGLEELGIELDPRGRIPVNTRFQTKIPNIYATGDVVAGPMLAHKAEDEGIICVEGMAGGAVHIDYNCVPSVIYTHPEVAWVGKSEEQLKEEGIEYKVGKFPFAANSRAKTNADTDGMVKILGQKSTDRVLGAHILGPGAGEMVNEAALALEYGASCEDIARVCHAHPTLSEAFREANLAASFGKSINF
notes: Dihydrolipoamide dehydrogenase, human, pathogenic variant I318T; Clinically reported disease-causing variant; mutation verified by MS
B2: I358T-hLADH (enzyme, human, UniProt P09622 36-509, looked up)
chain: ADQPIDADVTVIGSGPGGYVAAIKAAQLGFKTVCIEKNETLGGTCLNVGCIPSKALLNNSHYYHMAHGKDFASRGIEMSEVRLNLDKMMEQKSTAVKALTGGIAHLFKQNKVVHVNGYGKITGKNQVTATKADGGTQVIDTKNILIATGSEVTPFPGITIDEDTIVSSTGALSLKKVPEKMVVIGAGVIGVELGSVWQRLGADVTAVEFLGHVGGVGIDMEISKNFQRILQKQGFKFKLNTKVTGATKKSDGKIDVSIEAASGGKAEVITCDVLLVCIGRRPFTKNLGLEELGIELDPRGRIPVNTRFQTKIPNIYAIGDVVAGPMLAHKAEDEGIICVEGMAGGAVHIDYNCVPSVTYTHPEVAWVGKSEEQLKEEGIEYKVGKFPFAANSRAKTNADTDGMVKILGQKSTDRVLGAHILGPGAGEMVNEAALALEYGASCEDIARVCHAHPTLSEAFREANLAASFGKSINF
notes: Dihydrolipoamide dehydrogenase, human, pathogenic variant I358T; Clinically reported disease-causing variant; mutation verified by MS
B3: G194C-hLADH (enzyme, human, UniProt P09622 36-509, looked up)
chain: ADQPIDADVTVIGSGPGGYVAAIKAAQLGFKTVCIEKNETLGGTCLNVGCIPSKALLNNSHYYHMAHGKDFASRGIEMSEVRLNLDKMMEQKSTAVKALTGGIAHLFKQNKVVHVNGYGKITGKNQVTATKADGGTQVIDTKNILIATGSEVTPFPGITIDEDTIVSSTGALSLKKVPEKMVVIGAGVIGVELCSVWQRLGADVTAVEFLGHVGGVGIDMEISKNFQRILQKQGFKFKLNTKVTGATKKSDGKIDVSIEAASGGKAEVITCDVLLVCIGRRPFTKNLGLEELGIELDPRGRIPVNTRFQTKIPNIYAIGDVVAGPMLAHKAEDEGIICVEGMAGGAVHIDYNCVPSVIYTHPEVAWVGKSEEQLKEEGIEYKVGKFPFAANSRAKTNADTDGMVKILGQKSTDRVLGAHILGPGAGEMVNEAALALEYGASCEDIARVCHAHPTLSEAFREANLAASFGKSINF
notes: Dihydrolipoamide dehydrogenase, human, pathogenic variant G194C; Clinically reported disease-causing variant
B4: G426E-hLADH (enzyme, human, UniProt P09622 36-509, looked up)
chain: ADQPIDADVTVIGSGPGGYVAAIKAAQLGFKTVCIEKNETLGGTCLNVGCIPSKALLNNSHYYHMAHGKDFASRGIEMSEVRLNLDKMMEQKSTAVKALTGGIAHLFKQNKVVHVNGYGKITGKNQVTATKADGGTQVIDTKNILIATGSEVTPFPGITIDEDTIVSSTGALSLKKVPEKMVVIGAGVIGVELGSVWQRLGADVTAVEFLGHVGGVGIDMEISKNFQRILQKQGFKFKLNTKVTGATKKSDGKIDVSIEAASGGKAEVITCDVLLVCIGRRPFTKNLGLEELGIELDPRGRIPVNTRFQTKIPNIYAIGDVVAGPMLAHKAEDEGIICVEGMAGGAVHIDYNCVPSVIYTHPEVAWVGKSEEQLKEEGIEYKVGKFPFAANSRAKTNADTDGMVKILGQKSTDRVLGAHILGPGAEEMVNEAALALEYGASCEDIARVCHAHPTLSEAFREANLAASFGKSINF
notes: Dihydrolipoamide dehydrogenase, human, pathogenic variant G426E; Clinically reported disease-causing variant
B5: K37E-hLADH (enzyme, human, UniProt P09622 36-509, looked up)
chain: ADQPIDADVTVIGSGPGGYVAAIKAAQLGFKTVCIEENETLGGTCLNVGCIPSKALLNNSHYYHMAHGKDFASRGIEMSEVRLNLDKMMEQKSTAVKALTGGIAHLFKQNKVVHVNGYGKITGKNQVTATKADGGTQVIDTKNILIATGSEVTPFPGITIDEDTIVSSTGALSLKKVPEKMVVIGAGVIGVELGSVWQRLGADVTAVEFLGHVGGVGIDMEISKNFQRILQKQGFKFKLNTKVTGATKKSDGKIDVSIEAASGGKAEVITCDVLLVCIGRRPFTKNLGLEELGIELDPRGRIPVNTRFQTKIPNIYAIGDVVAGPMLAHKAEDEGIICVEGMAGGAVHIDYNCVPSVIYTHPEVAWVGKSEEQLKEEGIEYKVGKFPFAANSRAKTNADTDGMVKILGQKSTDRVLGAHILGPGAGEMVNEAALALEYGASCEDIARVCHAHPTLSEAFREANLAASFGKSINF
notes: Dihydrolipoamide dehydrogenase, human, pathogenic variant K37E; Clinically reported disease-causing variant
B6: I445M-hLADH (enzyme, human, UniProt P09622 36-509, looked up)
chain: ADQPIDADVTVIGSGPGGYVAAIKAAQLGFKTVCIEKNETLGGTCLNVGCIPSKALLNNSHYYHMAHGKDFASRGIEMSEVRLNLDKMMEQKSTAVKALTGGIAHLFKQNKVVHVNGYGKITGKNQVTATKADGGTQVIDTKNILIATGSEVTPFPGITIDEDTIVSSTGALSLKKVPEKMVVIGAGVIGVELGSVWQRLGADVTAVEFLGHVGGVGIDMEISKNFQRILQKQGFKFKLNTKVTGATKKSDGKIDVSIEAASGGKAEVITCDVLLVCIGRRPFTKNLGLEELGIELDPRGRIPVNTRFQTKIPNIYAIGDVVAGPMLAHKAEDEGIICVEGMAGGAVHIDYNCVPSVIYTHPEVAWVGKSEEQLKEEGIEYKVGKFPFAANSRAKTNADTDGMVKILGQKSTDRVLGAHILGPGAGEMVNEAALALEYGASCEDMARVCHAHPTLSEAFREANLAASFGKSINF
notes: Dihydrolipoamide dehydrogenase, human, pathogenic variant I445M; Clinically reported disease-causing variant
B7: I12T-hLADH (enzyme, human, UniProt P09622 36-509, looked up)
chain: ADQPIDADVTVTGSGPGGYVAAIKAAQLGFKTVCIEKNETLGGTCLNVGCIPSKALLNNSHYYHMAHGKDFASRGIEMSEVRLNLDKMMEQKSTAVKALTGGIAHLFKQNKVVHVNGYGKITGKNQVTATKADGGTQVIDTKNILIATGSEVTPFPGITIDEDTIVSSTGALSLKKVPEKMVVIGAGVIGVELGSVWQRLGADVTAVEFLGHVGGVGIDMEISKNFQRILQKQGFKFKLNTKVTGATKKSDGKIDVSIEAASGGKAEVITCDVLLVCIGRRPFTKNLGLEELGIELDPRGRIPVNTRFQTKIPNIYAIGDVVAGPMLAHKAEDEGIICVEGMAGGAVHIDYNCVPSVIYTHPEVAWVGKSEEQLKEEGIEYKVGKFPFAANSRAKTNADTDGMVKILGQKSTDRVLGAHILGPGAGEMVNEAALALEYGASCEDIARVCHAHPTLSEAFREANLAASFGKSINF
notes: Dihydrolipoamide dehydrogenase, human, pathogenic variant I12T; Also expressed with an N-terminal Twin-Strep-tag to increase the yield; source: very low-expressing, eluted with contaminating proteins
B8: R447G-hLADH (enzyme, human, UniProt P09622 36-509, looked up)
chain: ADQPIDADVTVIGSGPGGYVAAIKAAQLGFKTVCIEKNETLGGTCLNVGCIPSKALLNNSHYYHMAHGKDFASRGIEMSEVRLNLDKMMEQKSTAVKALTGGIAHLFKQNKVVHVNGYGKITGKNQVTATKADGGTQVIDTKNILIATGSEVTPFPGITIDEDTIVSSTGALSLKKVPEKMVVIGAGVIGVELGSVWQRLGADVTAVEFLGHVGGVGIDMEISKNFQRILQKQGFKFKLNTKVTGATKKSDGKIDVSIEAASGGKAEVITCDVLLVCIGRRPFTKNLGLEELGIELDPRGRIPVNTRFQTKIPNIYAIGDVVAGPMLAHKAEDEGIICVEGMAGGAVHIDYNCVPSVIYTHPEVAWVGKSEEQLKEEGIEYKVGKFPFAANSRAKTNADTDGMVKILGQKSTDRVLGAHILGPGAGEMVNEAALALEYGASCEDIAGVCHAHPTLSEAFREANLAASFGKSINF
notes: Dihydrolipoamide dehydrogenase, human, pathogenic variant R447G; Clinically reported disease-causing variant

Target: the molecule itself
Assay: crystal structure; sitting drop; 0.2 M MgCl2, PEG 3350, 0.1 M Bis-Tris pH 6.7; space group C 1 2 1; two monomers (the homodimer) in the asymmetric unit

Binding result, binds:
B1
B2

Target: the molecule itself
Assay: SEC; calibrated size-exclusion chromatography (cSEC); HiPrep 16/60 Sephacryl S-200 HR, 4 °C, 150 mM ammonium acetate, pH 6.80, 0.5 mL/min; 40–780 μg protein loaded; dimer to monomers

Binding result, binds:
B3
B4
B5
B6
B7
B8
